Data on one molecule can be found in publication PMC8939767 (2022).

Holding throughout (experiment): BLI
Experiment [1] has as its target SARS-CoV-2 soluble spike protein.
Experiment [2] has as its target SARS-CoV-1 soluble spike protein.
Experiment [3] deals with HCoV-OC43 soluble spike protein.
Experiment [4] concerns the target T1, HCoV-HKU1 soluble spike ectodomain protein (HCoV-HKU1, UniProt Q5MQD0 13-1300).
T1 chain: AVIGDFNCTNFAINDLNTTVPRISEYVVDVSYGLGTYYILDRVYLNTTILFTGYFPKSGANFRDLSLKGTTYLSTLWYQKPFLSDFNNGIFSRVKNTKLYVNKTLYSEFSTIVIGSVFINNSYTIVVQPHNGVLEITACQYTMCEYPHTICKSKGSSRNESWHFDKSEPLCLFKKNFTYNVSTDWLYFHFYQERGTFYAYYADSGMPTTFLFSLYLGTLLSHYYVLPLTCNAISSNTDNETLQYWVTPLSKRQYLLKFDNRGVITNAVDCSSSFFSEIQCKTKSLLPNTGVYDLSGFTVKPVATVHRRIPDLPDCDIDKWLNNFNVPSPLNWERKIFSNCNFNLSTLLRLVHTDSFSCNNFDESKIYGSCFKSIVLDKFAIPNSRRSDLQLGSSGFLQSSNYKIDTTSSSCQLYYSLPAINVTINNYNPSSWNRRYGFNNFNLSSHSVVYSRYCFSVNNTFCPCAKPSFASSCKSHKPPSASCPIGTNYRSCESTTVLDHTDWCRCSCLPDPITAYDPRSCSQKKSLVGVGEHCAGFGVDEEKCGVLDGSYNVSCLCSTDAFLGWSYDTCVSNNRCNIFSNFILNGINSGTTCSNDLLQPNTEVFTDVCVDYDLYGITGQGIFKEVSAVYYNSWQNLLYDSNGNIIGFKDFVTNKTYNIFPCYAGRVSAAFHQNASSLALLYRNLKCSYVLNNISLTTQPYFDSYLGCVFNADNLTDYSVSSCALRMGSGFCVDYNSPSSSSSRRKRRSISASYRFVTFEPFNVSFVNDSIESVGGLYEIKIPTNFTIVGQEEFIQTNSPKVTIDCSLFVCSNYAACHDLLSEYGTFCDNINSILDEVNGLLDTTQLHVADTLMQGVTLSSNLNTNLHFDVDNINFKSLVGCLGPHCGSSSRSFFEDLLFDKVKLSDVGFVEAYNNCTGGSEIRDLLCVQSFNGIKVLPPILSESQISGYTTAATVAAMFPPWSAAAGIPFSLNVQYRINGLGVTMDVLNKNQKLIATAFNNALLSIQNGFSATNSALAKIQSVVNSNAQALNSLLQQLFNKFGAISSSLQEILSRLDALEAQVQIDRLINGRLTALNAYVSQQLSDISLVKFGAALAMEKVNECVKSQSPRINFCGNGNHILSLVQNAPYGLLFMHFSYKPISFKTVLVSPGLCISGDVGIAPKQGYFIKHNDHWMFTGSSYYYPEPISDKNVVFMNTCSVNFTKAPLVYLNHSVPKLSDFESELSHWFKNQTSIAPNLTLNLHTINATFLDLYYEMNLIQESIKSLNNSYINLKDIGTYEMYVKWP

B1: CC40.8 broadly neutralizing antibody (IgG) (antibody, V domains shown)
VH: EVQLLESGGGLVQPGGSLRLSCAASGFTFSSYVMTWARQAPGKGLEWVSAISGTGYTYYADSVKGRFTVSRDNSKNTLFLQMSSLRAEDTAVYYCAITMAPVVWGQGTTVTVSS
VL: SYELTQPPSVSVSPGQTARITCSGDALPKRYAYWYQQKSGQAPILVIYEDKKRPSGIPERLSGSKSGTVATLTISGAQVEDEADYYCYSTDSSGNHAVFGGGTQLTVL
Regarding B1, the Kd in experiment [1] is less than 1 pM; in experiment [2], less than 1 pM; in experiment [3], approximately 10000 pM; in experiment [4] it was less than 1 pM.

What is called Kd is the concentration at which binding is half-saturated. Read a low Kd as tighter binding.
